Data as given in US20240279280A1 (CAMBRIDGE ENTERPRISE, published 2024).
Where “and” joins values, the source holds several entries; their conditions need not be identical. Equal entries are not always repeated. Positions of bridges follow the written chain, without caps; N, C: chain ends. Non-standard residues stand in square brackets, D forms with d. No end group written: not given here. *: point of attachment. Phe(3,4,5-F3) = N[C@@H](Cc1cc(F)c(F)c(F)c1)C(=O)O; Myristoyl = CCCCCCCCCCCCCC(=O)*; pGlu = O=C1CC[C@@H](C(=O)O)N1; Nle = CCCC[C@H](N)C(=O)O; Abu = CC[C@H](N)C(=O)O; Aib = CC(C)(N)C(=O)O

T1: human apelin receptor (human, UniProt P35414 1-380)
T1 sequence (looked up): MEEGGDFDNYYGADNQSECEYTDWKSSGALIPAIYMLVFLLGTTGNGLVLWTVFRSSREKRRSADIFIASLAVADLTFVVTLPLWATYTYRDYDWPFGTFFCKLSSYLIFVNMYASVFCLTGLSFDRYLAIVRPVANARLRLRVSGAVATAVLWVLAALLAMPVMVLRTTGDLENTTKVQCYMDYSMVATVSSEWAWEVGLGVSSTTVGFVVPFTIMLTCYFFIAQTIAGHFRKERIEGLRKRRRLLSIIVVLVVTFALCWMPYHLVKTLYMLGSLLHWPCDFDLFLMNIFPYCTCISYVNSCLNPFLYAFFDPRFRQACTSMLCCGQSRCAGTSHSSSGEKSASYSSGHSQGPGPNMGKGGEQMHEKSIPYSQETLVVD

B1: MM313 (peptide)
peptide: Ac-ARPR[Nle]CKH[Abu]R[Aib]R[Nle][Phe(3,4,5-F3)]
B2: MM54 (peptide)
peptide: CRPRLCKHCRPRLC
modifications: disulfide 1-6, 9-14
notes: Previously published macrocyclic comparator; also called cyclo(1-6)CRPRLC-KH-cyclo(9-14)CRPRLC
B3: MM297 (peptide)
peptide: [pGlu]RPR[Nle]CKHCR[Aib]R[Nle][Phe(3,4,5-F3)]
modifications: cysteine pairing not given here
B4: MM300 (peptide)
peptide: Myristoyl-CRPR[Nle]CKHCR[Aib]R[Nle][Phe(3,4,5-F3)]
modifications: cysteine pairing not given here
notes: also called Myristoyl-CRPR-Nle-CKHCR-Aib-R-Nle-(3,4,5-trifluoro-)F
B5: MM302 (peptide)
peptide: CRPR[Nle]CHKCR[Aib]R[Nle][Phe(3,4,5-F3)]
modifications: cysteine pairing not given here
notes: also called CRPR-Nle-CHKCR-Aib-R-Nle-(3,4,5-trifluoro-)F
B6: MM107 (peptide)
peptide: CRPRLCHKCRPRLC
B7: MM314 (peptide)
peptide: ARPR[Nle][Abu]KH[Abu]R[Aib]R[Nle][Phe(3,4,5-F3)]
B8: MM298 (peptide)
peptide: CRPR[Nle][Abu]KHCR[Aib]R[Nle][Phe(3,4,5-F3)]
modifications: cysteine pairing not given here
B9: MM193 (peptide)
peptide: CRPR[Nle]CKHCR[Aib]R[Nle][Phe(3,4,5-F3)]
modifications: cysteine pairing not given here
notes: also called CRPR-Nle-CKHCR-Aib-R-Nle-(3,4,5-trifluoro-)F
B10: MM262 (peptide)
peptide: QRPR[Nle]CKHCR[Aib]R[Nle][Phe(3,4,5-F3)]
modifications: cysteine pairing not given here
notes: also called QRPR-Nle-CKHCR-Aib-R-Nle-(3,4,5-trifluoro-)F
B11: MM312 (peptide)
peptide: ARPR[Nle]CKH[Abu]R[Aib]R[Nle][Phe(3,4,5-F3)]
B12: MM316 (peptide)
peptide: Myristoyl-ARPR[Nle][Abu]HK[Abu]R[Aib]R[Nle][Phe(3,4,5-F3)]
B13: MM108 (peptide)
peptide: CRPRLCKHCRPRLC
notes: Linear peptide
B14: MM299 (peptide)
peptide: CRPR[Nle]CKH[Abu]R[Aib]R[Nle][Phe(3,4,5-F3)]
modifications: cysteine pairing not given here
B15: MM315 (peptide)
peptide: Myristoyl-ARPR[Nle][Abu]KH[Abu]R[Aib]R[Nle][Phe(3,4,5-F3)]

molecular target: T1, human apelin receptor; experiment: radioligand competition vs [Glp65,Nle75,Tyr77][125I]apelin-13 on CHO-K1 cells expressing human apelin receptor (Cerep); Cheng-Prusoff
Method: Binding assays were performed by Cerep (Celle L'Evescault, France) on Chinese Hamster Ovary (CHO-K1) cells expressing the human apelin receptor. […] The results were expressed as a percent of control specific binding ((measured specific binding/control specific binding)×100) and as a percent inhibition of control specific binding (100−((measured specific binding/control specific binding)×100)) obtained in the presence of the test compounds. […] Results showing an inhibition between 20% and 50% were indicative of weak to moderate effects.

Binder	Ki
B1	53 nM and 47 nM
B2	82 nM
B3	55 nM
B4	13 nM
B5	17 nM
B6	180 nM
B7	10 nM and 8.9 nM
B8	16 nM
B9	19 nM
B10	34 nM
B11	190 nM and 160 nM
B12	3 nM and 2.8 nM
B13	140 nM
B14	6.1 nM
B15	3 nM and 2.7 nM

molecular target: T1, human apelin receptor; experiment: binding to human left ventricle

Binder	Kd [nM]
B2	358

molecular target: T1, human apelin receptor; experiment: cell-based or functional assay

Binder	DRx cAMP assay EC50 (weak agonist activity) [nM]
B2	1400

molecular target: T1, human apelin receptor; experiment: cell-based or functional assay; remark: another data set of the same source

Binder	DRx cAMP pA2	DRx β-Arrestin pA2
B1	6.66 and 6.92	–
B3	6.08 and 6.14	7.38
B7	6.43 and 6.71	–
B8	7.59 and 7.12	7.76
B11	6.6 and 6.84	–
B12	7.41 and 7.88	–
B14	7.32 and 6.95	8.1 and 8.53
B15	8.52 and 8.11	–

molecular target: T1, human apelin receptor; experiment: cell-based or functional assay; remark: another data set of the same source

Binder	DRx cAMP pD2	DRx β-Arrestin pA2
B2	5.86	–
B6	–	7.24
B9	–	7.68
B10	–	7.53
B13	–	7.41

molecular target: T1, human apelin receptor; experiment: radioligand competition vs [Glp65,Nle75,Tyr77][125I]apelin-13 on human left ventricle homogenate
Method: Equilibrium was broken by centrifugation (20,000 g for 10 min, 4° C.). Pellets were washed with Tris-HCl buffer (50 mmol/L, pH 7.4, 4° C.), re-centrifuged and bound radioactivity in the final pellets counted. Data from triplicate experiments were analysed using the iterative non-linear curve fitting programs EBDA and LIGAND (KELL package, Biosoft, UK) or GraphPad Prism 6 to derive values of affinity (expressed as either the equilibrium dissociation constant KD or the negative log₁₀ of the dissociation constant, pKᵢ±sem) and receptor density (BMAX±sem in fmoles bound per mg protein).

Binder	HLV pKi
B9	6.12
